pKd: −log10 of the molar value.

This is an account of results in article PMC2615049.

Test [1] concerns the target Bovine cationic trypsin (bovine). As to the kind of experiment: equilibrium titration with spectrophotometric assay of residual free trypsin.
Test [2] has the same target. In words: ITC. On the technique in general: ITC needs no label: the signal is the heat of the interaction.

As to C14S BPTI variant (natural protein), the negative-log Kd (pKd) in test [1] was 9.77.

In turn, “C14S/C38S BPTI variant (natural protein)” yielded a dH (enthalpy of dissociation, ΔHd, at 25 °C, HEPES buffer) in test [2] of 10.6 kcal/mol.

As a reminder, the pKd is −log10 of the Kd, conventionally taken in molar units.
